Laboratory results from the DeepSol protein solubility set.

experiment: soluble on expression in E. coli; label from the status in PepcDB or PDB records

Row | Sequence | soluble on expression in E. coli
1 | MNFENLLIELGTEELPPKALRKLAESFLANFTEELTKADLAFKSAVWYAAPRRLALNITELAIAQADKIVEKRGPAVSSAFDAGGKPTKAAEGWARGNGITVDQAERLVTDKGEWLVYNAKVEGVETKSLVAAMAQRALDKLPIPKPMRWGSSKTQFIRPVHTATMLLGSELIEGELLGIKSARNIRGHRFMGTGFELDHADNYLTLLKEKGKVIADYESRKALIKADAEKAAAKIGGTADIEDALLEEVTSLVEWPVVLTASFEEKFLSVPSEALVYTMKGDQKYFPVFDDAGKLLPNFIFVANIESKDPAQIISGNEKVVRPRLADAEFFFNTDKKHTLESRLPSLETVLFQQQLGTLKDKVTRISALAAFIAEQTGANAVDAARAGLLSKTDLMTNMVMEFTDTQGTMGMHYARLDGETEAVALAMEEQYKPKFSGDTVPTAAVSCAVALADKLDTLVGIFGIGQAPKGAADPFALRRAAIGVLRIIVENKLPLDLVTLIAKAQELHGANLSNANASEEVLEFLMARFRAWYQDKGINVDVILAVLARRPTR | not soluble
2 | MKRLKNELNALVNRGVDRHLRLAVTGLSRSGKTAFITAMVNQLLNIHAGARLPLLSAVREERLLGVKRIPQRDFGIPRFTYDEGLAQLYGDPPAWPTPTRGVSEIRLALRYKSNDSLLRHFKDTSTLYLEIVDYPGEWLLDLPMLAQDYLSWSRQMTGLLNGQRGEWSAKWRMMCEGLDPLAPADENRLADIAAAWTDYLHHCKQQGLHFIQPGRFVLPGDMAGAPALQFFPWPDVDAWGESKLAQADKHTNAGMLRERFNYYCEKVVKGFYKNHFLRFDRQIVLVDCLQPLNSGPQAFNDMRLALTQLMQSFHYGQRTLFRRLFSPVIDKLLFAATKADHVTIDQHANMVSLLQQLIQDAWQNAAFEGISMDCLGLASVQATTSGIIDVNGEKIPALRGNRLSDGAPLTVYPGEVPARLPGQAFWDKQGFQFEAFRPQVMDVDKPLPHIRLDAALEFLIGDKLR | not soluble
3 | MMKAIPVEQAVGTVLCHDLTRIVPGEHKGRAFRKGHIVTEADIPLLLSIGKEHLYVLNLEAHQLHEDEAALRIATAAAGPGISLSEVSEGRINFMASPGLLCVDVEALNAINAIDEVALATMHSGQFIAARRAVAGTRVVPLVIDESKIRQVERICAASYPVVQVKPLRSHSIGVVTTGSEIFHGRIKDKFGPVMRDKFAALGSSVMGQRLVGDAPEATRDAILSFIGEGADMVVVTGGMSVDPDDQTPASIRATGAEVVTYGSPTFPGVMFMLAYLNDIPVLGLPGCVMYYRASIFDLVVPRLLAGERLARRDITSLGHGGFCAGCETCHHPVCPFGKLEHHHHHH | not soluble
4 | GPGSMTIDAVSPLFADISREYGAAFDAAIARNVADALAEDVGSGDQTGRLVPDGAPRRARVIVREDAVLCGVPWFDAVVRAVDPSIEVDWRHREGDRMSADSTVCELRGPARALLTAERNALNFLQLLSGVASATRQYVDRIADTRARILDTRKTLPGLRLAQKYAVRVGGGANQRLALYAGILIKENHIAAAGGVGEALDAAFALNAEVPVQIEVETLDQLRTALAHGARSVLLDNFTLDMMRDAVRVTEGRAVLEVSGGVNFDTVRAIAETGVDRISIGALTKDVRATDYSMRIVE | soluble
5 | MKVELTAIEARVIGCLIEKEVTTPDQYPLSLNALTNASNQKSNREPVMALSESDVLDAVDALIERRLVSDESAFNSRVSKYQHRFCNTEFGDLKLSEQEKGIICCMLLRGAQTPGEIRTRTNRLATFHDVKEVEAVLEHLASEEKGPLVVKLPREAGKRESRYMHLFCGEVDVSAMAAAVPATSSSSVRIAQLEQEVAELREELDALKAQVESLLS | not soluble
6 | MGSDKIHHHHHHMSDSQTVSAAVAKLYNTYPFPPEALLDEPPPGYNWRWNWLAAHNFCTGQKPQKQDIRILDAGCGTGVSTEYLVHLNPQASVVGIDLSTGALDVAKERCQRSGANRVEFHHLSLFDVEQLPGEFDLINCVGVLHHTSDPIRGIQALAQKLAPGGLMHIFVYGELGRWEIQLMQKAIALLQGDKKGDYRDGVQVGRQIFASLPENNRIVKYEKQRWSLENHKDEHFADMYVHPQEIDYNIETLFELIDASGLEFIGFSNPSFWDLERLLSKAPELVERAKELSDRQLYRLIELLDPEVTHYEFFLGRPPLVKTDWSDDKALLAAIPELNPCIEGFPSQCFFNYNYQIVNLSEPEFEFMQKCDANSTVAEILADVQLGLDEVRKLLQQQLILLAPA | not soluble
7 | MGSDKIHHHHHHMQVRRFGRTNWNVSEIGYGMWGASGWKGSDDSQSEQSLDLAVSKGVNFFDTAWGYGEGHSEQLLGKLVKRHQSKKIYVATKIPPMNFKWPSKKSYTIGECFPVSHIKEYTETSLKNLGVEKIDLMQFHVWEDAWATDESWQRAVEDLQKEGKVDAFGISVNRWEPENCLETLKTGLIDSVQVIYNIFDQAPEDALLPLCKKLDIAVIARVPFDEGTLTGTITKDTTFEEGDWRASYFVPENLISSAEHADRLRPILPSGMTMAEMALRFILMNDDIATTIPGMRKERNVLANTGVSDGKKLSLDLYNELKKHRWDREPTSWSQ | not soluble
8 | MAHHHHHHMQYNLIGSKINNHYVVDPYVSLLYLKRAYKFLRLLKDSGGEAIILGNKHREVHLEHYFGNVQRKETCSLNILTNVTKRYDLLICTDLPLFYPYMRNVLIPKMLVADGATFVKYKTFLHAFDYFIPLTGEKLDRHLHYVLARRYLSGGELR | not soluble
9 | MIVTTTSGIQGKEIIEYIDIVNGEAIMGANIVRDLFASVRDVVGGRAGSYESKLKEARDIAMDEMKELAKQKGANAIVGVDVDYEVVRDGMLMVAVSGTAVRI | soluble
10 | MGSDKIHHHHHHMKLLDHKLSLLEITDEEKSDEIILNLSRNVKKDLEDIVVANVSMENVLVMNIKVPPTLNKQNAVEYATMEISRNLGILPEQLVVAPLDIRGGEGLFFVSKVDQVKSFVTDLMKKEFPETDVVIPDIVKYLEVFEFYFGKRLKGTSVLTVISFLSDYYSIVVLENNHYRSLRLLFSMFWDYMDIVVENTGIQPKELIEGTVNVDLSFLQPYFGDFLIELDREVKVSLDEVNLSRVNQFFYIVDPPIFSPVLSQSLEKFEGVALKQGIVPSFKPGISLGTLGLMIRGGREIGKVKHLSV | not soluble
11 | MSLELVSFVKSHIDQAVYFSTITSNPIEFNLPESLSLDTTDIENDIKTSCDEIFYSTGSYIPPMLNTLEQHLNLRIEYFNNLIEFTKINFNYKISPTVKLYLIEKISILKCCLALFKYISDKAILSNIWRDLVLNSFNDSSLEEFVLGKLDEFPRLFTIFLNDLSAKIVGFNDVEEKVKIVDLLITCVYDAVLENCEKSIRYDALQLDPLELDNKPMWFTNLTNIKAMNNIFFSFIFPDNDLSVENKQRLLTVVKLLYYVINQNMIWHKSMKQIETEEYKEVEALYNDNHANWIHVLCNIGVHEEALQICEFYHDLGGLVEILEKLDFEISRELYDQYFKMFGYEFATILFEYYINAKDLKALFFKFPNHHDLLNKFLLSSPPKYYKYAWIQEIIDNDYRKASDILTTLSVGEAGDGCEISERQLHLNIAKLSGLVDENFDANQMIEIQRDIDTIDHQTRIKKLLEEDPTGISMNQAFANNEFGEKFQETKYCIQNDKSINIKYIIDMLSMMDSVENLYEALKLTCIYRHSLGYEVSKYFQQSIWRRCIIEESKDGVIQLEGENSKIYQLLVKYFEGKLYEYDCKLPFVSFLMDRIGISMNFLSIIYGNDNNVLVSISDSIEREYHDLIRIGDTLESQLSTIIGSANEGHHHHHH | not soluble
12 | MAHHHHHHMESPEADEAFSKSLDAKVDDLFARIPLPQDPMKVALALTDEEAREEAATELVKEAVREMYWRKLGAKQAEELRLKKAQEKLQKQGAIQYFEERREEERLREHENTQFAAQPLAVEPQSPVGKGVTASPLQNLDSTLSAEELRKELAAMKANVSRLEELLRYKT | soluble
13 | MGSDKIHHHHHHMTLTSDSWLTLIVSLPSASATARMRIWRAVKALGCAALRDGAYLLPAQAEQAAQLQMLADEALQEGGQAWLLQVQALDLAEQATFQALFDRTADYTPWLEELAQARQTLSALSAAELQRTQRKHARAYEVIRKIDFFPGETSIRADAQWRDFANALESMQSPGEPQPMAGRIARRDRMQYQGRVWATRRHLWVDRVASAWLIQRFIDPHARFLWLNTAADCPSDALGFDFDGATFSHVGERVTFEVLLASFGLEDDRGLSRLGAMVHALDVGGATTPEASGFEAVLAGARKRWPDDDALLVDIGGVLDSLHAHFSSSRKT | not soluble
14 | MGHHHHHHSHMAPKKAKKRAGGANSNVFSMFEQTQIQEFKEAFTIMDQNRDGFIDKNDLRDTFAALGRVNVKNEEIDEMIKEAPGPINFTVFLTMFGEKLKGADPEETILNAFKVFDPEGKGVLKADYVREMLTTQAERFSKEEVDQMFAAFPPDVTGNLDYKNLVHIITHGEEKD | soluble
15 | MEQFPNSLSITLLGSAGGAAKAVLAILNQAIANEKDPIYEVLKNAKFHLVDIKQKDRTYYDELFSNLKGQLYLYEINLQNVVEFKQHLKEKRTSVVIDVSGADTIRVLSCCNELGICYINSALENEAVDQDDSLIGFQLTERYTRFEKEKEKFTNTKAIIGSGMNPGVVQWMVVELMKERPNERPRACYIVEHDTSFLNDTALIKPHTLYASWAVERFLDEAIWSYPMYMSHHRPLYFYEDVYASEYKVKLGEKEFYGCLMPHEEVLILGKNFNMEVGFLYRINEYTTNIIRQNLDQVEDLWNWNRKVFNPAEEEVAGEDLVGVLLVYENSETYMYNVMNSSQVFRKYKTNATYFQVGCGIYAGLSSLLLDQFEQGAYYVEELLLNTESKYGEYLNLYMKDFVIGHNNFTDGLLHDRVRWM | not soluble
16 | MGSDKIHHHHHHMNFYRDATWVLEDIEKEAAKERISGSMQTLVLKSCKRYKLKSNPKHIYAVLDSCWKYKPYLEKVMKKAHILEDIPKKKGKPLFSRLTLLLLCHDLLLSKQKRIQMGKHPIKDYVLKFKSPLHSEMVKLKLKLKVRELSELVLSEDISNDLPPVRWIRINPLKCHPNGETEPVLAELRKKFTLKVDKWSELVPGSIYYDEFIPNLFGIHPSDKITAHELYKHGKIIIQDRASCFPAHILNPGPSDIVIDSCSAPGNKTTHTASYIYPEPPKDNNTRIYAFEKDPERAKVLQKMIKIAGCSPNISVNVGDFTKLATPEKYKDVTCFIVDPSCSGSGIFGRKFFDSFNRRKIDDKDDDGGIVPDEQEEFIAKEELQTRLAKLSSFQFQMVKHAMSFPAAKKIVYSTCSIHAEENERVVIDLLLDKSVREWGWKVAPKREVIPSWPRRGKVEEFEEVFRDGVTYDPQQLAEGCIRALPKSDGGIGFFAVCFERD | not soluble
17 | GMADAPIDIFQSILSRKSIRAFTDQPVTQETIREILKLAARAPSGTNLQPWQVIVLTGKILQKVGQELSQLVLSGIKGEREYHYYPRQWREPYLSRRRKVGLDLYKSLGIQKGDQEKMLHQKAKNFLFYGAPVGLLFTIDHDMEMGSWLDLGMFMQTIMLAARGFGLDTCAQAAFADYHKQIRSLLSVPSDRHIICGMALGYRDMNAPENNFETEREPIDNFVHFIKSYP | soluble
